Data: article PMC5658516

target: OTULIN-diUb adduct (endogenous OTULIN coupled to bio-Ub_(G76Dha)-Ub) (human (endogenous in HEK293 and Jurkat T cells) | not stated) (UniProt Q96BN8); assay: pull-down; biotin-PD of the OTULIN-diUb adduct formed in extracts of transfected HEK293 cells or of Jurkat T cells (with or without TNF-α, 20 ng/mL) on streptavidin agarose, three washes with co-IP buffer; western blot of eluate, input and supernatant

percent of the protein removed from the extract by the biotin-PD [%] | Substance
25 | endogenous HOIL-1 (from UniProt Q9BYM8 1-510) (natural protein)
25 | endogenous HOIP (from UniProt Q96EP0 1-1072) (natural protein)
25 | endogenous SHARPIN (from UniProt Q9H0F6 1-387) (natural protein)
